From article PMC3128532 come the findings set out here.

For the assay, the target named is MBP-tagged TANGO1-Coil2 (amino acids 1440-1650) (human) (UniProt Q5JRA6). The experiment in a line: pull-down.
Chain of UniProt Q5JRA6 (Q5JRA6 1440-1650): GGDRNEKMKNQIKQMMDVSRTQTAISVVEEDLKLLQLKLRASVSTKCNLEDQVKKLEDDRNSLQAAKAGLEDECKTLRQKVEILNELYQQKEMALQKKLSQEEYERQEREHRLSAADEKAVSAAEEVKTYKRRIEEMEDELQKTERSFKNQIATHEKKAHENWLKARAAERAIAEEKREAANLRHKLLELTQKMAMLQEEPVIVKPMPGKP

The stoichiometry N is a count of units in the complex or per binding partner. For the substance “ColdTF-tagged cTAGE5-Coil2 (amino acids 301-650) (domain or fragment)”, the stoichiometry N was found to be 1.
